The target in data set [1] is T1, p19 (Carnation Italian ringspot virus (CIRV), UniProt Q66104 1-172).
T1 sequence: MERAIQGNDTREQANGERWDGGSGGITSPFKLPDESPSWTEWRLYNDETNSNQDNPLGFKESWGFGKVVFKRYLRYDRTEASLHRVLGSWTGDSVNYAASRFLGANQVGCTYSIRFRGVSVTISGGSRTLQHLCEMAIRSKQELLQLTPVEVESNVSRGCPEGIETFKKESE
Kind of data set: EMSA. As to conditions: protein: recombinant, tags: GST (pGEX-6P-1) removed by PreScission protease, chain copies: 2. In general terms: A gel shift assay detects complexes by their altered migration in electrophoresis.

Data set [2] concerns the target T2, 2b (Tomato aspermy virus (TAV), UniProt Q8UYT3 1-95).
T2 sequence: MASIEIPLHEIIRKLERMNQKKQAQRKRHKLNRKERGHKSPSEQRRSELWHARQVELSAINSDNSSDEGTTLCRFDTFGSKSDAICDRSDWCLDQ
Kind of data set: EMSA. The settings on record: protein: recombinant, tags: His-SUMO removed by SUMO protease, chain copies: 2.

Data set [3] deals with T2, 2b. Description: competition EMSA; KC vs labeled gf698 siRNA, 1.9 nM 2b monomer. The settings on record: protein: recombinant, tags: His-SUMO removed by SUMO protease, chain copies: 2.
For data set [4], the target named is T1, p19. Description: competition EMSA; KC vs labeled gf698 siRNA, 0.5 nM p19 dimer. As to conditions: protein: recombinant, tags: GST (pGEX-6P-1) removed by PreScission protease, chain copies: 2.
Data set [5] deals with the molecule itself. Description: AUC; sedimentation equilibrium (18,000 rpm) and velocity (40,000 rpm), 20°C, CIRV p19 at 1.2 to 13 µM in buffer D; no RNA.
Setting [6] is: miRNA duplex with mismatches, 3' overhangs.
Where [7] appears, read: label: 5'-32P, miRNA duplex with mismatches, 3' overhangs.
Where [8] appears, read: miRNA duplex with mismatches, 22 nt star strand.

B1: gf698 siRNA (dsRNA)
RNA 1: UAGUUCAUCCAUGCCAUGUGU
RNA 2: ACAUGGCAUGGAUGAACUAUA
modifications: 5' phosphate on both strands
As to B1, the figures for the equilibrium dissociation constant (Kd) with p19 [1] (2 nt 3' overhangs) and with 2b [2] (2 nt 3' overhangs) were 0.06 ± 0.04 nM and 0.68 ± 0.15 nM, respectively. The Ki with 2b [3] (2 nt 3' overhangs) is 0.53 ± 0.08 nM; with p19 [4] (2 nt 3' overhangs), 0.07 ± 0.03 nM.

B2: NbmiR403a (dsRNA)
RNA 1: UUAGAUUCACGCACAAACUCG
RNA 2: UGUUUGUGCGUGAAUCUGACA
modifications: 5' phosphate on both strands
B2: the Kd was 0.11 ± 0.02 nM in the data set with p19 [1] (setting [6]) and 0.22 ± 0.03 nM in the data set with 2b [2] (setting [6]). The Ki with 2b [3] (setting [6]) is 0.01 ± 0.006 nM.

B3: NbmiR162a (Table 1 name) (dsRNA)
RNA 1: UCGAUAAACCUCUGCAUCCAG
RNA 2: GGAGGCAGCGGUUUAUCGAUC
modifications: 5' phosphate on both strands
For B3, the Kd with p19 [1] (setting [7]) was 0.14 ± 0.05 nM.

B4: AtmiR168a (= NbmiR168d,e) (dsRNA)
RNA 1: UCGCUUGGUGCAGGUCGGGAA
RNA 2: CCCGCCUUGCAUCAACUGAAU
modifications: 5' phosphate on both strands
On to B4, for which the Kd with p19 [1] (setting [6]) came out at 2.29 ± 0.78 nM; with 2b [2] (setting [6]), 1.24 ± 0.15 nM. The Ki with 2b [3] (setting [6]) turned out to be 12.1 ± 0.7 nM; in the data set with p19 [4] (setting [6]), 1.59 ± 0.35 nM.

B5: Carnation Italian ringspot virus (CIRV) p19 protein (natural protein)
chain: MERAIQGNDTREQANGERWDGGSGGITSPFKLPDESPSWTEWRLYNDETNSNQDNPLGFKESWGFGKVVFKRYLRYDRTEASLHRVLGSWTGDSVNYAASRFLGANQVGCTYSIRFRGVSVTISGGSRTLQHLCEMAIRSKQELLQLTPVEVESNVSRGCPEGIETFKKESE
notes: p19 viral suppressor of RNA silencing of Carnation Italian ringspot virus (CIRV); the p19 open reading frame cloned into pGEX-6P-1; theoretical mass of the monomer 19.479 kDa; GST removed with PreScission protease; also called Tombusvirus p19; source: E. coli BL21(DE3) RIPL, purified (GSTrap, PreScission cleavage, Resource Q anion exchange)
Take B5: the “stoichiometry N” value in data set [5] is 2.

B6: NbmiR403b (dsRNA)
RNA 1: UUAGAUUCACGCACAAACUCG
RNA 2: UGUUUGUGCGUGAUUCUGACA
modifications: 5' phosphate on both strands
With B6, the dissociation constant (Kd) is 0.37 ± 0.06 nM with p19 [1] (setting [6]) and 0.26 ± 0.03 nM with 2b [2] (setting [6]). Besides, the Ki with 2b [3] (setting [6]) amounted to 0.02 ± 0.003 nM.

B7: AtmiR168b (dsRNA)
RNA 1: UCGCUUGGUGCAGGUCGGGAA
RNA 2: CCCGUCUUGUAUCAACUGAAU
modifications: 5' phosphate on both strands
B7: in the data set with p19 [1] (setting [7]), the Kd came out at 4.83 ± 1.57 nM.

B8: AtmiR162 (= NbmiR162b per Table 1) (dsRNA)
RNA 1: UCGAUAAACCUCUGCAUCCAG
RNA 2: GGAGGCAGCGGUUCAUCGAUC
modifications: 5' phosphate on both strands
Regarding B8, the results for the Kd with p19 [1] (setting [6]) and in the data set with 2b [2] (setting [6]) were 0.07 ± 0.03 nM and 0.46 ± 0.06 nM, respectively. The figures for the inhibition constant (Ki) in the data set with 2b [3] (setting [6]) and with p19 [4] (setting [6]) were 0.67 ± 0.09 nM and 0.12 ± 0.05 nM, respectively.

B9: AtmiR403 (dsRNA)
RNA 1: UUAGAUUCACGCACAAACUCG
RNA 2: UGUUUUGUGCUUGAAUCUAAUU
modifications: 5' phosphate on both strands
As for B9, the Kd in the data set with p19 [1] (setting [8]) was 1.37 ± 0.29 nM; with 2b [2] (setting [8]) it was 0.26 ± 0.03 nM. The Ki with 2b [3] (setting [8]) was found to be 0.05 ± 0.004 nM; with p19 [4] (setting [8]), 1.09 ± 0.43 nM.

B10: NbmiR168a,b,c (dsRNA)
RNA 1: UCGCUUGGUGCAGGUCGGGAC
RNA 2: CCCGCCUUGCAUCAACUGAAU
modifications: 5' phosphate on both strands
Consider B10, for which the Kd in the data set with p19 [1] (setting [7]) is 6.57 ± 1.5 nM.

A word on the Kd: it is the equilibrium constant for the complex coming apart. The Ki is a dissociation constant, usually derived from enzyme kinetics or from competition with a known ligand. What is called stoichiometry N is the number of molecules, sites or subunits per partner or assembly.
